Assay results published in paper PMC12212138, “Crystal structure and mutagenesis of a nucleic acid–binding BRCT domain in human PARP4”.

Tests used:
Assay in all cases: FP; 3 nM probe; FP: 50 mM Tris pH 7.5, 50 mM NaCl, 1 mM MgCl2, 0.05% NP40, 2 mM DTT, 5% glycerol, 25 ug/ml BSA, room temp 30 min; EMSA: 50 mM Tris pH 7.5, 50 mM NaCl, 4% Ficoll PM400, 0.05% NP40, 2 mM DTT, 0-18 uM protein, room temp 30 min, gel at 4 C
Settings in all cases: protein: recombinant; tags: N-terminal His-SUMO removed by TEV; label: 5'-6-FAM; predicted intramolecular fold
PARP4 BRCT WT = target: T1, PARP4 BRCT WT (human, UniProt Q9UKK3 1-100)
T1 sequence: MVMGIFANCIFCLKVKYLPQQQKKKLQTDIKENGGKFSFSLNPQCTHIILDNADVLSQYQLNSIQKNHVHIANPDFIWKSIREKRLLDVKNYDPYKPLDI

[1] = target: T2, PARP4 BRCT-WGR-CAT K23/24Q (human, UniProt Q9UKK3 1-573, K23Q;K24Q)
T2 sequence: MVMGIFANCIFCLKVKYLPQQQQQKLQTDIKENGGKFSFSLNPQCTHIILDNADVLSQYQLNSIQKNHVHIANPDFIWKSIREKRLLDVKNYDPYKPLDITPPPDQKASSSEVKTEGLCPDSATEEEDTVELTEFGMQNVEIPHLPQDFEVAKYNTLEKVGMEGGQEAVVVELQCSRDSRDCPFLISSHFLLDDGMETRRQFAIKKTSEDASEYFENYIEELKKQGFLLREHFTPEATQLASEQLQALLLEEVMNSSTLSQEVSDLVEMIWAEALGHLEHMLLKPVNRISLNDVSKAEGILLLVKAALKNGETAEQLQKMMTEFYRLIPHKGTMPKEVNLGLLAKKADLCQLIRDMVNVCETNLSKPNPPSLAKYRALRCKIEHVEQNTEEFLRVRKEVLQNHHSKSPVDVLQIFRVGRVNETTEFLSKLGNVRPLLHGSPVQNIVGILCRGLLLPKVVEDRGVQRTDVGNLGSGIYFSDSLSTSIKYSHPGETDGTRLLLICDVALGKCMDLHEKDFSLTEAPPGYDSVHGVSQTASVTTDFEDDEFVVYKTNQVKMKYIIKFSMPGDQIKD

PARP4 BRCT F39Q = target: T3, PARP4 BRCT F39Q (human, UniProt Q9UKK3 1-100, F39Q)
T3 sequence: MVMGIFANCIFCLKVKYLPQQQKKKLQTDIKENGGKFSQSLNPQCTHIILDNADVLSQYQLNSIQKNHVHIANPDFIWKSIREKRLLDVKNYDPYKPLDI

B1: vtRNA1-3 (structured_RNA)
RNA: GGCUGGCUUUAGCUCAGCGGUUACUUCGCGUGUCAUCAAACCACCUCUCUGGGUUGUUCGAGACCCGCGGGCGCUCUCCAGCCCUCUU
Q: What does the source list for B1?
A: Kd (PARP4 BRCT WT): 19 ± 4 µM; Kd [1]: 71 ± 26 µM; Kd (PARP4 BRCT F39Q): 35 ± 10 µM
